Experimental findings from publication PMC6202052, “The ectodomains determine ligand function in vivo and selectivity of DLL1 and DLL4 toward NOTCH1 and NOTCH2 in vitro” (eLife, 2018) are described below.

Test [1] addresses T1, N2(1–15)-Fc (human, UniProt Q04721 26-605).
T1 construct: human NOTCH2, printed as N2(1–15); no catalogue number is printed; Captured on protein A sensor tips by its Fc; also called human N2; human NOTCH2; source: bought: R and D systems, used without further purification
T1 sequence (looked up): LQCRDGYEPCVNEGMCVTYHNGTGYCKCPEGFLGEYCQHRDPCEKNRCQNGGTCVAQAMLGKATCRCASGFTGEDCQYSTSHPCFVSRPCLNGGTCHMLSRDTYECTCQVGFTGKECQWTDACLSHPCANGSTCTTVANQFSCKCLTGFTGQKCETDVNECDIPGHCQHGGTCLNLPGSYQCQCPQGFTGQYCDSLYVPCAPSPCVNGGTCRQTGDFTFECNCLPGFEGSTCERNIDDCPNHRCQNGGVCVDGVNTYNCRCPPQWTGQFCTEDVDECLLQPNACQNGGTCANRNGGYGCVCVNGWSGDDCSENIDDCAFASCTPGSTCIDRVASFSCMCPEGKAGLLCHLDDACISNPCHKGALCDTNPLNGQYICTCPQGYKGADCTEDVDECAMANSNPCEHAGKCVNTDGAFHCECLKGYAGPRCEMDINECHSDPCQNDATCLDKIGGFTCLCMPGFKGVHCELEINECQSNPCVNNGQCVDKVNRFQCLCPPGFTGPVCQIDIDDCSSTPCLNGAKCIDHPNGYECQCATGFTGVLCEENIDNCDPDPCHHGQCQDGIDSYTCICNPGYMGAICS
In words: BLI; BLItz instrument; N2(1–15)-Fc captured on protein A biosensors, ligand samples of varying concentration; HBS-P buffer with 0.005% surfactant P20 and 5 mM CaCl2; equilibrium curves fitted with a one site specific binding model. To be noted: both partners purified. (BLI is a label-free optical method that tracks binding on a fibre tip over time.)

Test [2] deals with T2, biotinylated human N1 ectodomain fragment containing EGF repeats 6–15 (human, UniProt P46531 216-604, biotin on the Avi tag (BirA co-expression)).
T2 construct: human NOTCH1, EGF repeats 6–15 (amino acids 216–604); also called hN1; N1 fragment; source: Expi293F, transiently transfected (co-transfected with BirA and POFUT1), purified from the medium (Ni-NTA, Superdex 200); not shown: Avi (biotinylation) tag, C-terminal, kept
In words: BLI; BLItz instrument; biotinylated Notch1 fragment loaded on streptavidin biosensors, dipped into ligand samples of varying concentration until equilibrium; HBS-P buffer with 0.005% surfactant P20 and 5 mM CaCl2; equilibrium curves fitted with a one site specific binding model. The conditions noted are these: both partners purified.

What is called Kd is the constant that tells how readily two partners part at equilibrium. A low value points to tighter binding.

B1: hD1N-E5 (human DLL1 from the N-terminus through EGF-repeat 5) (domain or fragment, UniProt O00548 18-402, looked up)
chain: QVWSSGVFELKLQEFVNKKGLLGNRNCCRGGAGPPPCACRTFFRVCLKHYQASVSPEPPCTYGSAVTPVLGVDSFSLPDGGGADSAFSNPIRFPFGFTWPGTFSLIIEALHTDSPDDLATENPERLISRLATQRHLTVGEEWSQDLHSSGRTDLKYSYRFVCDEHYYGEGCSVFCRPRDDAFGHFTCGERGEKVCNPGWKGPYCTEPICLPGCDEQHGFCDKPGECKCRVGWQGRYCDECIRYPGCLHGTCQQPWQCNCQEGWGGLFCNQDLNYCTHHKPCKNGATCTNTGQGSYTCSCRPGYTGATCELGIDECDPSPCKNGGSCTDLENSYSCTCPPGFYGKICELSAMTCADGPCFNGGRCSDSPDGGYSCRCPVGYSGFNC
notes: human DLL1, N-terminus through EGF5; source: Expi293F, transiently transfected, purified from the medium (Ni-NTA, Superdex 200)
B1: the affinity in test [1], expressed as Kd, was 360 nM.

B2: mD4N-E5 (mouse DLL4 from the N-terminus up to and including EGF5) (domain or fragment, UniProt Q9JI71 27-401, looked up)
chain: GSGIFQLRLQEFVNQRGMLANGQSCEPGCRTFFRICLKHFQATFSEGPCTFGNVSTPVLGTNSFVVRDKNSGSGRNPLQLPFNFTWPGTFSLNIQAWHTPGDDLRPETSPGNSLISQIIIQGSLAVGKIWRTDEQNDTLTRLSYSYRVICSDNYYGESCSRLCKKRDDHFGHYECQPDGSLSCLPGWTGKYCDQPICLSGCHEQNGYCSKPDECICRPGWQGRLCNECIPHNGCRHGTCSIPWQCACDEGWGGLFCDQDLNYCTHHSPCKNGSTCSNSGPKGYTCTCLPGYTGEHCELGLSKCASNPCRNGGSCKDQENSYHCLCPPGYYGQHCEHSTLTCADSPCFNGGSCRERNQGSSYACECPPNFTGSNCE
notes: mouse DLL4, N-terminus up to and including EGF5; also called DLL4 (from the N-terminus through EGF-repeat 5); pLexM-D4N-E5-Avi-His; source: Expi293F, transiently transfected, purified from the medium (Ni-NTA, Superdex 200)
As to B2, binding in test [2] was characterised by a dissociation constant (Kd) of 430 nM.

B3: D4N-E5 (DLL4 from the N-terminus through EGF-repeat 5) as used in the N2 binding experiment (domain or fragment, UniProt Q9NR61 27-400, looked up)
chain: SGVFQLQLQEFINERGVLASGRPCEPGCRTFFRVCLKHFQAVVSPGPCTFGTVSTPVLGTNSFAVRDDSSGGGRNPLQLPFNFTWPGTFSLIIEAWHAPGDDLRPEALPPDALISKIAIQGSLAVGQNWLLDEQTSTLTRLRYSYRVICSDNYYGDNCSRLCKKRNDHFGHYVCQPDGNLSCLPGWTGEYCQQPICLSGCHEQNGYCSKPAECLCRPGWQGRLCNECIPHNGCRHGTCSTPWQCTCDEGWGGLFCDQDLNYCTHHSPCKNGATCSNSGQRSYTCTCRPGYTGVDCELELSECDSNPCRNGGSCKDQEDGYHCLCPPGYYGLHCEHSTLSCADSPCFNGGSCRERNQGANYACECPPNFTGSNCE
notes: DLL4, N-terminus through EGF5; it may be the mouse fragment m2); The sentence names hD1N-E5 as human but prints D4N-E5 without a species prefix; source: Expi293F, transiently transfected, purified from the medium (Ni-NTA, Superdex 200)
B3: in test [1], the Kd worked out at 1280 nM.

B4: mDLL1 fragment (mouse DLL1 from the N-terminus up to and including EGF5) (domain or fragment)
chain: not shown
notes: mouse DLL1, N-terminus up to and including EGF5; also called DLL1 (from the N-terminus through EGF-repeat 5); D1N-E5; source: Expi293F, transiently transfected, purified from the medium (Ni-NTA, Superdex 200)
As to B4, the Kd in test [2] is 1560 nM.
